Patent US20060067930A1 (Genentech, published 2006)

Biological target: T1, human FcγRIII (V158)
T1 construct: also called FcγRIIIA-Val158; CD16
Test: ELISA of 2H7 variants binding to human FcγRIII (V158)

T1 sequence (chain, as listed by the source limits assumed): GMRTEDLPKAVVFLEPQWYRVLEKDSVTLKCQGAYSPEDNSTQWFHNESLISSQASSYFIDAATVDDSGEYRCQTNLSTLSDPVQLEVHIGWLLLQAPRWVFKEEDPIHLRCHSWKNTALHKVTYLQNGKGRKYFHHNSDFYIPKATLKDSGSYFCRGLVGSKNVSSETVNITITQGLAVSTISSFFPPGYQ

B1: 2H7.v16 (antibody, human IgG1, kappa)
light chain: DIQMTQSPSSLSASVGDRVTITCRASSSVSYMHWYQQKPGKAPKPLIYAPSNLASGVPSRFSGSGSGTDFTLTISSLQPEDFATYYCQQWSFNPPTFGQGTKVEIKRTVAAPSVFIFPPSDEQLKSGTASVVCLLNNFYPREAKVQWKVDNALQSGNSQESVTEQDSKDSTYSLSSTLTLSKADYEKHKVYACEVTHQGLSSPVTKSFNRGEC
heavy chain: not shown
notes: Humanized anti-CD20 antibody with no Fc changes; also called humanized 2H7v.16; 2H7 version 16
binding result: binds

B2: 2H7.v375 (antibody, human IgG1, kappa)
light: DIQMTQSPSSLSASVGDRVTITCRASSSVSYMHWYQQKPGKAPKPLIYAPSNLASGVPSRFSGSGSGTDFTLTISSLQPEDFATYYCQQWSFNPPTFGQGTKVEIKRTVAAPSVFIFPPSDEQLKSGTASVVCLLNNFYPREAKVQWKVDNALQSGNSQESVTEQDSKDSTYSLSSTLTLSKADYEKHKVYACEVTHQGLSSPVTKSFNRGEC
heavy: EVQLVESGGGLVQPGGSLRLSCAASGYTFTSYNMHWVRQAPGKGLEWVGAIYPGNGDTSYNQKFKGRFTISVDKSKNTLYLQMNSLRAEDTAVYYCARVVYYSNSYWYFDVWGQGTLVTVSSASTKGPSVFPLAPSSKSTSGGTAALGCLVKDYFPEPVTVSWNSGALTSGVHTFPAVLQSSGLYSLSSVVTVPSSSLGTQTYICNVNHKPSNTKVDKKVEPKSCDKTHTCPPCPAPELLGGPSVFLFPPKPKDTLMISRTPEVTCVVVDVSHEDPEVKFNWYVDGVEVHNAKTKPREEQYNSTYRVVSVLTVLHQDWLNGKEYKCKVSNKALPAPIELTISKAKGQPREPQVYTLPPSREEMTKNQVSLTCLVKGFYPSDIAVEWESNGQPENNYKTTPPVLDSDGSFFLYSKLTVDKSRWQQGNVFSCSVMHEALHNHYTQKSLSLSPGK
notes: copies: 2 + 2
EC50 (read off the curve): ~600 ng/mL
